{"source": "patent US20240175001A1", "biological_target": "SNAP-25 (rat) (UniProt P60881)", "sequence (P60881 whole entry)": "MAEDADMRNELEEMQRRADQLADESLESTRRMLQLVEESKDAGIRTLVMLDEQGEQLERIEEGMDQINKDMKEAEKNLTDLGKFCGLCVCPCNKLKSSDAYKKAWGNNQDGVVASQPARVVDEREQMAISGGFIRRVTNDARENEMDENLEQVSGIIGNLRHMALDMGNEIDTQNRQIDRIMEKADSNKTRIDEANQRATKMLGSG", "assay": "cell-based or functional assay"}
{"substance": "native BoNT/A1 (LIST)", "values": [{"measurement": "pEC50 (percentage SNAP-25 cleavage in rat eSCN, 24 h, Western blot)", "result": 12.3}]}
